{
  "source": "paper doi:10.1101/602425",
  "target": "GST-Rac1A, active (GTPγs-bound) (Dictyostelium) (UniProt P34144)",
  "experiment": "pull-down",
  "data": [
    {"substance": "GFP-WASP (wild type Dictyostelium WASP) (natural protein)", "values": [
      {"measurement": "immunoblot quantification of binding (%)", "value": 1.9, "unit": "%"}
    ]}
  ]
}
